Data: patent US20150374794A1 (Novo Nordisk, published 2015)
Numbered stars: 1 amine (or outer) side, 2 acyl side, 3 side chain; on linkers, the order of the positions; unused ones are H or OH. Square brackets hold non-standard residues; d marks the D form. Side chains are listed from the residue outwards. Ends that are not written are not given here. * marks the point of attachment. C18 diacid = O=C(O)CCCCCCCCCCCCCCCCC(=O)*; γGlu = O=C(O)[C@H](CCC(=O)[*:2])N[*:1]; Ac4c = NC1(C(=O)O)CCC1; AEEA = NCCOCCOCC(=O)O; Aib = CC(C)(N)C(=O)O

Experiments:
human GLP-1 receptor [1] = target: T1, human GLP-1 receptor (human, UniProt P43220 24-463); assay: displacement of 125I-GLP-1(7-36)NH2, membranes with human GLP-1R, SPA
T1 construct: whole, on cells; the potency assay used whole cells (clone FCW467-12A/KZ10-1)
Protocol: (§1) The receptor binding of each compound to the human GLP-1 receptor was measured in a displacement binding assay. […] Each derivative was added in a series of concentrations to isolated membranes containing the human GLP-1 receptor and displacement of the labelled ligand was monitored. The receptor binding was reported as the concentration at which half of the labelled ligand was displaced from the receptor, the IC₅₀ value.

human GLP-1 receptor [2] = target: T1, human GLP-1 receptor; assay: cell-based or functional assay
human glucagon receptor [3] = target: T2, human glucagon receptor (human, UniProt P47871 26-477); assay: cell-based or functional assay
human glucagon receptor [4] = target: T2, human glucagon receptor; assay: displacement of 125I-glucagon, membranes with human glucagon receptor, SPA
Protocol: as §1, with “human glucagon” for “human GLP-1”, “ligand is” for “ligand was”

T2 sequence (P47871 26-477): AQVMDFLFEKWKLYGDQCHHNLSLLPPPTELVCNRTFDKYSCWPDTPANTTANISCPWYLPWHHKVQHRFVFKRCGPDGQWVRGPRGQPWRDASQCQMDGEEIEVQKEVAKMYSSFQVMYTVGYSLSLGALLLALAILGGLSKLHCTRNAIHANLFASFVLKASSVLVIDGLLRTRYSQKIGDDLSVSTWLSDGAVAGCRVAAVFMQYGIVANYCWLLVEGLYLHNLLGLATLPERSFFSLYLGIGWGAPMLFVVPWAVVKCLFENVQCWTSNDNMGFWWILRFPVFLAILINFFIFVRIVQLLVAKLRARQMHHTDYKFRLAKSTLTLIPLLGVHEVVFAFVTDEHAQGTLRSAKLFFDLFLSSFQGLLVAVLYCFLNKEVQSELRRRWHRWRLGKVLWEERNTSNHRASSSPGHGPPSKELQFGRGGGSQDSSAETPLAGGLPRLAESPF

Binder | IC50 (human GLP-1 receptor [1]) [nM] | EC50 GLP-1R, CRE luciferase reporter gene assay in BHK cells (human GLP-1 receptor [2]) [nM] | EC50 GlucR, CRE luciferase reporter gene assay in BHK cells (human glucagon receptor [3]) [nM] | IC50 (human glucagon receptor [4]) [nM]
H[Ac4c]QGTFTSDLSKYLESRRAREFVQWLLK([γGlu-γGlu-AEEA-AEEA-γGlu-γGlu-C18 diacid])T-NH2 (N-terminus assumed; SMILES CC(C)C[C@H](NC(=O)[C@H](Cc1ccc(O)cc1)NC(=O)[C@H](CCCCN)NC(=O)[C@H](CO)NC(=O)[C@H](CC(C)C)NC(=O)[C@H](CC(=O)O)NC(=O)[C@H](CO)NC(=O)[C@@H](NC(=O)[C@H](Cc1ccccc1)NC(=O)[C@@H](NC(=O)CNC(=O)[C@H](CCC(N)=O)NC(=O)C1(NC(=O)[C@@H](N)Cc2c[nH]cn2)CCC1)[C@@H](C)O)[C@@H](C)O)C(=O)N[C@@H](CCC(=O)O)C(=O)N[C@@H](CO)C(=O)N[C@@H](CCCNC(=N)N)C(=O)N[C@@H](CCCNC(=N)N)C(=O)N[C@@H](C)C(=O)N[C@@H](CCCNC(=N)N)C(=O)N[C@@H](CCC(=O)O)C(=O)N[C@@H](Cc1ccccc1)C(=O)N[C@H](C(=O)N[C@@H](CCC(N)=O)C(=O)N[C@@H](Cc1c[nH]c2ccccc12)C(=O)N[C@@H](CC(C)C)C(=O)N[C@@H](CC(C)C)C(=O)N[C@@H](CCCCNC(=O)CC[C@H](NC(=O)CC[C@H](NC(=O)COCCOCCNC(=O)COCCOCCNC(=O)CC[C@H](NC(=O)CC[C@H](NC(=O)CCCCCCCCCCCCCCCCC(=O)O)C(=O)O)C(=O)O)C(=O)O)C(=O)O)C(=O)N[C@H](C(N)=O)[C@@H](C)O)C(C)C) | 0.3 | 0.006 | 0.011 | 
H[Aib]QGTFTSDLSKYLDK([γGlu-γGlu-AEEA-AEEA-γGlu-C18 diacid])KRAQEFVQWLLNT-NH2 (N-terminus assumed; SMILES CC(C)C[C@H](NC(=O)[C@H](Cc1ccc(O)cc1)NC(=O)[C@H](CCCCN)NC(=O)[C@H](CO)NC(=O)[C@H](CC(C)C)NC(=O)[C@H](CC(=O)O)NC(=O)[C@H](CO)NC(=O)[C@@H](NC(=O)[C@H](Cc1ccccc1)NC(=O)[C@@H](NC(=O)CNC(=O)[C@H](CCC(N)=O)NC(=O)C(C)(C)NC(=O)[C@@H](N)Cc1c[nH]cn1)[C@@H](C)O)[C@@H](C)O)C(=O)N[C@@H](CC(=O)O)C(=O)N[C@@H](CCCCNC(=O)CC[C@H](NC(=O)CC[C@H](NC(=O)COCCOCCNC(=O)COCCOCCNC(=O)CC[C@H](NC(=O)CCCCCCCCCCCCCCCCC(=O)O)C(=O)O)C(=O)O)C(=O)O)C(=O)N[C@@H](CCCCN)C(=O)N[C@@H](CCCNC(=N)N)C(=O)N[C@@H](C)C(=O)N[C@@H](CCC(N)=O)C(=O)N[C@@H](CCC(=O)O)C(=O)N[C@@H](Cc1ccccc1)C(=O)N[C@H](C(=O)N[C@@H](CCC(N)=O)C(=O)N[C@@H](Cc1c[nH]c2ccccc12)C(=O)N[C@@H](CC(C)C)C(=O)N[C@@H](CC(C)C)C(=O)N[C@@H](CC(N)=O)C(=O)N[C@H](C(N)=O)[C@@H](C)O)C(C)C) | 2.4 |  |  | 1.1
H[Aib]QGTFTSDLSKYLDLRRAQDFVQWLLK([γGlu-γGlu-Ser-Glu-Ser-γGlu-γGlu-C18 diacid])T-NH2 | 1.9 | 0.011 | 0.007 | 
H[Aib]QGTFTSDLSKYLESKRAREFVQWLLK([γGlu-γGlu-Ser-Glu-Ser-γGlu-γGlu-C18 diacid])T-NH2 [N^ε28-[(4S)-4-carboxy-4-[[(4S)-4-carboxy-4-[[(2S)-2-[[(2S)-4-carboxy-2-[[(2S)-2-[[(4S)-4-carboxy-4-[[(4S)-4-carboxy-4-(17-carboxyheptadecanoylamino)butanoyl]ami …, listing 1 of 2 here] | 0.2 | 0.004 |  | 
H[Aib]QGTFTSDLSKYLDKKAAREFVAWLLNT-NH2 (not fully specified) | 0.2 |  |  | 53
H[Aib]QGTFTSDLSKYLESKRAREFVQWLLK([γGlu-γGlu-Ser-Glu-Ser-γGlu-γGlu-C18 diacid])T-NH2 [N^ε28-[(4S)-4-carboxy-4-[[(4S)-4-carboxy-4-[[(2S)-2-[[(2S)-4-carboxy-2-[[(2S)-2-[[(4S)-4-carboxy-4-[[(4S)-4-carboxy-4-(17-carboxyheptadecanoylamino)butanoyl]ami …, listing 2 of 2 here] | 0.2 | 0.0027 |  | 1.7
H[Aib]HGTFTSDLSKYLESRRAREFVQWLLK([γGlu-AEEA-AEEA-γGlu-γGlu-C18 diacid])T-NH2 (N-terminus assumed; SMILES CC(C)C[C@H](NC(=O)[C@H](Cc1ccc(O)cc1)NC(=O)[C@H](CCCCN)NC(=O)[C@H](CO)NC(=O)[C@H](CC(C)C)NC(=O)[C@H](CC(=O)O)NC(=O)[C@H](CO)NC(=O)[C@@H](NC(=O)[C@H](Cc1ccccc1)NC(=O)[C@@H](NC(=O)CNC(=O)[C@H](Cc1c[nH]cn1)NC(=O)C(C)(C)NC(=O)[C@@H](N)Cc1c[nH]cn1)[C@@H](C)O)[C@@H](C)O)C(=O)N[C@@H](CCC(=O)O)C(=O)N[C@@H](CO)C(=O)N[C@@H](CCCNC(=N)N)C(=O)N[C@@H](CCCNC(=N)N)C(=O)N[C@@H](C)C(=O)N[C@@H](CCCNC(=N)N)C(=O)N[C@@H](CCC(=O)O)C(=O)N[C@@H](Cc1ccccc1)C(=O)N[C@H](C(=O)N[C@@H](CCC(N)=O)C(=O)N[C@@H](Cc1c[nH]c2ccccc12)C(=O)N[C@@H](CC(C)C)C(=O)N[C@@H](CC(C)C)C(=O)N[C@@H](CCCCNC(=O)CC[C@H](NC(=O)COCCOCCNC(=O)COCCOCCNC(=O)CC[C@H](NC(=O)CC[C@H](NC(=O)CCCCCCCCCCCCCCCCC(=O)O)C(=O)O)C(=O)O)C(=O)O)C(=O)N[C@H](C(N)=O)[C@@H](C)O)C(C)C) | 1.4 | 0.0357 | 0.0048 | 
H[Ac4c]QGTFTSDLSKYLESKRAREFVQWLLK([γGlu-γGlu-Ser-Glu-Ser-γGlu-γGlu-C18 diacid])T-NH2 | 0.3 |  | 0.005 | 0.6
H[Aib]QGTFTSDLSKYLESKRAREFVQWLLK([Gly-Ser-Glu-Gly-Ser-γGlu-γGlu-C18 diacid])T-NH2 | 0.2 | 0.0057 |  | 5.1
H[Aib]HGTFTSDLSKYLESRRAREFVQWLLK([γGlu-γGlu-AEEA-AEEA-γGlu-C18 diacid])T-NH2 (N-terminus assumed; SMILES CC(C)C[C@H](NC(=O)[C@H](Cc1ccc(O)cc1)NC(=O)[C@H](CCCCN)NC(=O)[C@H](CO)NC(=O)[C@H](CC(C)C)NC(=O)[C@H](CC(=O)O)NC(=O)[C@H](CO)NC(=O)[C@@H](NC(=O)[C@H](Cc1ccccc1)NC(=O)[C@@H](NC(=O)CNC(=O)[C@H](Cc1c[nH]cn1)NC(=O)C(C)(C)NC(=O)[C@@H](N)Cc1c[nH]cn1)[C@@H](C)O)[C@@H](C)O)C(=O)N[C@@H](CCC(=O)O)C(=O)N[C@@H](CO)C(=O)N[C@@H](CCCNC(=N)N)C(=O)N[C@@H](CCCNC(=N)N)C(=O)N[C@@H](C)C(=O)N[C@@H](CCCNC(=N)N)C(=O)N[C@@H](CCC(=O)O)C(=O)N[C@@H](Cc1ccccc1)C(=O)N[C@H](C(=O)N[C@@H](CCC(N)=O)C(=O)N[C@@H](Cc1c[nH]c2ccccc12)C(=O)N[C@@H](CC(C)C)C(=O)N[C@@H](CC(C)C)C(=O)N[C@@H](CCCCNC(=O)CC[C@H](NC(=O)CC[C@H](NC(=O)COCCOCCNC(=O)COCCOCCNC(=O)CC[C@H](NC(=O)CCCCCCCCCCCCCCCCC(=O)O)C(=O)O)C(=O)O)C(=O)O)C(=O)N[C@H](C(N)=O)[C@@H](C)O)C(C)C) | 0.6 | 0.0146 | 0.0036 | 
H[Ac4c]QGTFTSDLSKYLESKRAREFVQWLLK([Gly-Ser-Glu-Gly-Ser-γGlu-γGlu-C18 diacid])T-NH2 | 0.2 |  | 0.004 | 0.6
H[Ac4c]QGTFTSDLSKYLESRRAREFVQWLLK([γGlu-γGlu-AEEA-AEEA-γGlu-C18 diacid])T-NH2 (N-terminus assumed; SMILES CC(C)C[C@H](NC(=O)[C@H](Cc1ccc(O)cc1)NC(=O)[C@H](CCCCN)NC(=O)[C@H](CO)NC(=O)[C@H](CC(C)C)NC(=O)[C@H](CC(=O)O)NC(=O)[C@H](CO)NC(=O)[C@@H](NC(=O)[C@H](Cc1ccccc1)NC(=O)[C@@H](NC(=O)CNC(=O)[C@H](CCC(N)=O)NC(=O)C1(NC(=O)[C@@H](N)Cc2c[nH]cn2)CCC1)[C@@H](C)O)[C@@H](C)O)C(=O)N[C@@H](CCC(=O)O)C(=O)N[C@@H](CO)C(=O)N[C@@H](CCCNC(=N)N)C(=O)N[C@@H](CCCNC(=N)N)C(=O)N[C@@H](C)C(=O)N[C@@H](CCCNC(=N)N)C(=O)N[C@@H](CCC(=O)O)C(=O)N[C@@H](Cc1ccccc1)C(=O)N[C@H](C(=O)N[C@@H](CCC(N)=O)C(=O)N[C@@H](Cc1c[nH]c2ccccc12)C(=O)N[C@@H](CC(C)C)C(=O)N[C@@H](CC(C)C)C(=O)N[C@@H](CCCCNC(=O)CC[C@H](NC(=O)CC[C@H](NC(=O)COCCOCCNC(=O)COCCOCCNC(=O)CC[C@H](NC(=O)CCCCCCCCCCCCCCCCC(=O)O)C(=O)O)C(=O)O)C(=O)O)C(=O)N[C@H](C(N)=O)[C@@H](C)O)C(C)C) | 0.3 | 0.003 | 0.01 | 
